Assay [1] concerns the target T1, Mcl-1, Q07820.
T1 chain: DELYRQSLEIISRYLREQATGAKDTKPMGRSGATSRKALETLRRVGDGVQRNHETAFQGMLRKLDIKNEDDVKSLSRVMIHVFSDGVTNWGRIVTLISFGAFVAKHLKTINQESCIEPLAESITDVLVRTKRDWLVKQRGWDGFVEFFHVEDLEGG
Nature of the assay: peptide SPOT array, c-Myc-tagged receptor at 1 uM or 100 nM, anti-c-Myc-Cy3.

The target in assay [2] is T2, Bcl-w, Q92843.
T2 chain: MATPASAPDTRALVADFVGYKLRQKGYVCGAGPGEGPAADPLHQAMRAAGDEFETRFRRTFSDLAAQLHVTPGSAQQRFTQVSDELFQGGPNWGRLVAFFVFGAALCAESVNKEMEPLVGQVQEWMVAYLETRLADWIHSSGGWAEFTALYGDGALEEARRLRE
The description is as above.

Assay [3] has as its target T3, Bfl-1, Q16548.
T3 chain: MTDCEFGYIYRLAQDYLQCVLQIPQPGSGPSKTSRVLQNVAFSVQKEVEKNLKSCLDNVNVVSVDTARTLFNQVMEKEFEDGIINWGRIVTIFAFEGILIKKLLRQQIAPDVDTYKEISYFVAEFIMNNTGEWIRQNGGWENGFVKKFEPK
The assay is described as above.

The target in assay [4] is Bcl-2, P10415. Described as above.
The target in assay [5] is Bcl-xL, Q07817. The description is as above.
Assay [6] concerns the target T4, Bcl-2, P10415.
T4 chain: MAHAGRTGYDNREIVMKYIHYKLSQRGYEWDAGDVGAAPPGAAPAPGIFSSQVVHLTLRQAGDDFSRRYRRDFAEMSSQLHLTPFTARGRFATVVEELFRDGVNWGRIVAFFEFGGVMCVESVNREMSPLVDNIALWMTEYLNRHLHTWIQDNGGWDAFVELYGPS
Nature of the assay: fluorescence polarisation, direct titration of receptor into 10 nM labelled peptide. For orientation: Fluorescence polarisation rises when a labelled molecule tumbles more slowly, as on binding a larger partner.

Assay [7] addresses T1, Mcl-1, Q07820. Described as above.
Assay [8] has as its target T2, Bcl-w, Q92843. Described as above.
The target in assay [9] is T3, Bfl-1, Q16548. The assay is described as above.
Assay [10] addresses Bcl-xL, Q07817. Described as above.

The term Kd denotes the equilibrium constant for the complex coming apart. A lower Kd goes with a tighter complex.

Sequence of Bcl-xL, Q07817 (Q07817 1-209): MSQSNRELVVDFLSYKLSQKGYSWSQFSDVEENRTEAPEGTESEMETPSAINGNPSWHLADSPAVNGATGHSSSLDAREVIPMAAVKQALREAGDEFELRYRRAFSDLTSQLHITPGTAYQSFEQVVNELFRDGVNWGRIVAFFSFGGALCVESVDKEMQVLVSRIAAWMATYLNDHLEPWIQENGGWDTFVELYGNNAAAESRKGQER

For KEFLALASSSLLKIGQETDKTTTRNR [NCKAP1], the SPOT signal as a fraction of Bim BH3's signal on the same receptor and array was 0.12 with Mcl-1, Q07820 [1]; 0.26 with Bcl-w, Q92843 [2]; 0.23 with Bfl-1, Q16548 [3]; 0.03 in the assay with Bcl-2, P10415 [4]; 0.26 with Bcl-xL, Q07817 [5].
For the molecule SVGGRGISSKLDSLADELKFVPIIGI [SACS], the SPOT signal as a fraction of Bim BH3's signal on the same receptor and array with Mcl-1, Q07820 [1] came out at 0.02; in the assay with Bcl-w, Q92843 [2], 0.02; in the assay with Bfl-1, Q16548 [3], 0.02; in the assay with Bcl-2, P10415 [4], 0.01; with Bcl-xL, Q07817 [5] it was 0.03.
Regarding PEDLQDVGWFLHKLSQQILKKEKEKK [TLR5], the SPOT signal as a fraction of Bim BH3's signal on the same receptor and array with Mcl-1, Q07820 [1] was 0.3; in the assay with Bcl-w, Q92843 [2], 0.3; with Bfl-1, Q16548 [3], 0.25; in the assay with Bcl-2, P10415 [4], 0.07; with Bcl-xL, Q07817 [5] it was 0.1.
Regarding ADLYEEAAENLHQLSDKLPAPGRAMV [MTBP], the SPOT signal as a fraction of Bim BH3's signal on the same receptor and array with Mcl-1, Q07820 [1] amounted to 0.02; with Bcl-w, Q92843 [2], 0.02; in the assay with Bfl-1, Q16548 [3], 0.02; with Bcl-2, P10415 [4], 0.01; in the assay with Bcl-xL, Q07817 [5], 0.02.
As to LGRTGQVCLFLKRGADQHALDQEQRD [ACAP3], the SPOT signal as a fraction of Bim BH3's signal on the same receptor and array with Mcl-1, Q07820 [1] worked out at 0.08; in the assay with Bcl-w, Q92843 [2], 0.11; in the assay with Bfl-1, Q16548 [3], 0.16; in the assay with Bcl-2, P10415 [4], 0.06; in the assay with Bcl-xL, Q07817 [5] it was 0.41.
For LRGSGAWGLLLRRVGDDVLVHLLARC [TERT], the SPOT signal as a fraction of Bim BH3's signal on the same receptor and array with Mcl-1, Q07820 [1] worked out at 0.14; with Bcl-w, Q92843 [2], 0.12; with Bfl-1, Q16548 [3] it was 0.19; with Bcl-2, P10415 [4] it was 0.03; with Bcl-xL, Q07817 [5] it was 0.32. In addition, the Kd in the assay with Bcl-2, P10415 [6] is 49 nM; with Mcl-1, Q07820 [7], 69 nM; with Bcl-w, Q92843 [8], 992 nM; in the assay with Bfl-1, Q16548 [9], 99 nM.
Consider LQLHRVLPPDLKSLGDQYVKDEFRRH [ACN9], for which the SPOT signal as a fraction of Bim BH3's signal on the same receptor and array in the assay with Mcl-1, Q07820 [1] was determined as 0.1; in the assay with Bcl-w, Q92843 [2], 0.14; in the assay with Bfl-1, Q16548 [3], 0.15; with Bcl-2, P10415 [4], 0.05; in the assay with Bcl-xL, Q07817 [5], 0.28.
For FMEKLDNGALLCQLAETMQEKFKESM [GAS2] the same measures were 0.02, 0.02, 0.02, 0.01 and 0.03.
With ACGDSVLARMLRELGDSLRRPQLRLW [SLC19A1], the SPOT signal as a fraction of Bim BH3's signal on the same receptor and array in the assay with Mcl-1, Q07820 [1] is 0.45; with Bfl-1, Q16548 [3], 0.38; with Bcl-xL, Q07817 [5], 1.21. Besides, the Kd with Bcl-2, P10415 [6] came to 237 nM; in the assay with Mcl-1, Q07820 [7] it was 22 nM; with Bfl-1, Q16548 [9] it was 182 nM; in the assay with Bcl-xL, Q07817 [10], 1460 nM.
In the case of FKAWGKFGGAFCRYADEMKEIQERQR [PURB], the SPOT signal as a fraction of Bim BH3's signal on the same receptor and array with Mcl-1, Q07820 [1] turned out to be 1.16; with Bfl-1, Q16548 [3], 1.05; with Bcl-xL, Q07817 [5] it was 1.83. Further, the dissociation constant (Kd) is 34 nM in the assay with Bcl-2, P10415 [6]; > 4000 nM in the assay with Mcl-1, Q07820 [7]; > 1800 nM with Bcl-w, Q92843 [8]; > 4660 nM with Bfl-1, Q16548 [9]; > 100000 nM with Bcl-xL, Q07817 [10].
For the molecule DAIIQMIVELLKRVGDQWEEEQSLAS [c6orf222], the Kd with Bcl-2, P10415 [6] was found to be 0.3 nM; in the assay with Mcl-1, Q07820 [7], 23 nM; with Bcl-w, Q92843 [8] it was 13 nM; with Bfl-1, Q16548 [9], 1 nM.
SWFIQSLCAMLKQYADKLEFMHILTR [CASP3] had an SPOT signal as a fraction of Bim BH3's signal on the same receptor and array with Bfl-1, Q16548 [3] of 0.25. Further, the Kd with Bcl-2, P10415 [6] is 264 nM; with Bcl-w, Q92843 [8] it was 64 nM; in the assay with Bfl-1, Q16548 [9], 43 nM.
Turning to SKFVILSAHKLVFIGDTLSRQAKAAD [BCAR1], the SPOT signal as a fraction of Bim BH3's signal on the same receptor and array with Mcl-1, Q07820 [1] is 0.06; with Bcl-xL, Q07817 [5], 0.1. The Kd in the assay with Bcl-2, P10415 [6] was 2990 nM; with Mcl-1, Q07820 [7], 912 nM; with Bcl-w, Q92843 [8], 3610 nM; with Bfl-1, Q16548 [9], 4680 nM; with Bcl-xL, Q07817 [10], 2540 nM.
With TVATRRLSGFLRTLADRLEGTKELLS [MINA], the SPOT signal as a fraction of Bim BH3's signal on the same receptor and array with Mcl-1, Q07820 [1] worked out at 0.36; with Bfl-1, Q16548 [3], 0.32; with Bcl-xL, Q07817 [5], 0.91. In addition, the Kd is 266 nM with Bcl-2, P10415 [6]; > 10000 nM with Mcl-1, Q07820 [7]; 1230 nM in the assay with Bcl-w, Q92843 [8]; 1130 nM with Bfl-1, Q16548 [9]; 1010 nM with Bcl-xL, Q07817 [10].
Regarding KIETTPESRYLAQIGDSVSLTCSTTG [VCAM1], in the assay with Bfl-1, Q16548 [3], the SPOT signal as a fraction of Bim BH3's signal on the same receptor and array was 0.03. In addition, the Kd is > 3040 nM with Bcl-2, P10415 [6]; > 4350 nM with Bcl-w, Q92843 [8]; > 3370 nM in the assay with Bfl-1, Q16548 [9].
In the case of VAGYRESAAFLLRSADELENLILQQN [NOL4], the SPOT signal as a fraction of Bim BH3's signal on the same receptor and array with Mcl-1, Q07820 [1] is 0.04; with Bcl-w, Q92843 [2], 0.03; in the assay with Bfl-1, Q16548 [3], 0.02; in the assay with Bcl-2, P10415 [4], 0.01; with Bcl-xL, Q07817 [5], 0.04.
As for PAKKMTLSEIYRWICDNFPYYKNAGI [FOXJ2], the SPOT signal as a fraction of Bim BH3's signal on the same receptor and array with Mcl-1, Q07820 [1] was 0.47; with Bfl-1, Q16548 [3] it was 0.54; with Bcl-xL, Q07817 [5], 2.03. In addition, the Kd with Bcl-2, P10415 [6] was 130 nM; in the assay with Mcl-1, Q07820 [7], > 10000 nM; in the assay with Bcl-w, Q92843 [8], 85 nM; with Bfl-1, Q16548 [9] it was > 3370 nM; with Bcl-xL, Q07817 [10], 103 nM.
